# According to the RNAGym collection of RNA variant scans (doi:10.7554/elife.90254):
# B1: LINE1-full (parent)
# chain: UACGUAGGUGGUUUUCCCCUGAUAGUGCUAAGGGGGCCUGGAAGUUUGGACUGGGCAGAGCUCAACACAGCGUGGCAAAGUGGCUGUGGCUAGACUGCCUCUCUGGAUUCCUCGUCACUCAGCAGGGCAUCUCUGAGAGAAAUGCC
# Variants of: B1
# Assay: self-cleavage, relative activity (ratio to wild type); higher = more cleavage; in vitro, sequencing; the parent is a self-cleaving ribozyme
row,Variant,self-cleavage
1,U29A A59G,0.16
2,A30U U47G,0.8
3,A30U U47C,1.07
4,A31G C128U,1.02
5,A30U U109C,1.33
6,A31G C37A,1.32
7,A31G C37U,1.6
8,U29C G82A,1.44
9,A30U G114C,1.25
10,U29C A78U,2.53
11,A31G U112A,1.61
12,U29C G125A,0.94
13,A31C U134A,1.26
14,A30U U143C,0.77
15,A30U U143G,1.38
16,A30C C131G,2.01
17,A30U A69G,0.4
18,A30G G75A,1.05
19,U29A A138G,1.11
20,A31G C38U,0.99
21,A30U U39C,0.85
22,A30U U39G,1.46
23,U29G A107G,2.23
24,U29C A141G,1.27

row,Variant,self-cleavage
1,C28U U115G,1.3
2,U29C C98U,0.42
3,U29A A107G,1.56
4,A30U U119C,0.5
5,U29A A129G,1.11
6,A30U C37G,0.81
7,U29A U39G,1.58
8,A30U C61G,0.08
9,A30G U45C,1.38
10,A31G A138U,1.05
11,A31C A138G,1.31
12,A30G U52C,1.53
13,A30G U52A,1.21
14,A30G A141U,1.06
15,A30G A141C,0.82
16,A30U C95A,0.03
17,A31G G105U,1.27
18,A31G G105A,1.29
19,A31G A69G,0.78
20,U29C A142U,0.86
21,U29C A142G,1.38
22,U29C A142C,1.06
23,A30G U81C,1.33
24,A30G U81A,1.7

row,Variant,self-cleavage
1,U29C U96C,0.24
2,U29C U96A,0.15
3,U29A U62A,0
4,A30C U81C,0.92
5,U29A A57G,1.01
6,U29A A30G,0.86
7,A30U,1.1
8,A30C,1.27
9,A30G,1.09
10,A31C U87A,0.07
11,A31G A50G,1.42
12,A31G C90A,0.12
13,U29C C101G,0.89
14,U29A U100A,0.91
15,A30G G53A,0.94
16,U29C U109A,1.28
17,C28U C63A,0.02
18,A31G U45C,1.07
19,A31G U45A,0.85
20,A30G G36C,1.25
21,U29A G126A,0.75
22,U29C C61A,0.03
23,A31G A136U,1.26
24,A31G A136G,1.37

row,Variant,self-cleavage
1,U29A U47C,0
2,A31C A79G,1.02
3,U29C G74A,1.11
4,U29C C116A,1.16
5,A30G U47C,1.09
6,A30G U47A,1.57
7,A31C A69G,0.33
8,U29C A69G,0.53
9,A30G G125U,1.47
10,A30U A67U,0.1
11,U29C A136G,0.92
12,U29C A64U,0.54
13,U29A A67G,0.67
14,A30G C71U,0.85
15,A30G G89C,0.07
16,A31G G44A,2.09
17,A30G A94G,0.34
18,A30G A94U,0.64
19,A31G G34A,0.77
20,A30G U134A,1.05
21,A30G U134C,1.13
22,U29A A92G,0
23,U29C C146U,1.02
24,U29C U91C,1.38

row,Variant,self-cleavage
1,A30U A94U,0.34
2,A30U A94C,0
3,A30C A138G,1.84
4,U29C C56U,0.23
5,A30U A79G,0.91
6,A30G U130C,1.36
7,C28U U46C,1.21
8,U29A U96C,0.13
9,A30G C56U,0.84
10,A30G U85C,0.45
11,U29A A65U,0.23
12,A31C U109C,2.01
13,A31U A42G,1.46
14,A30G G106U,0.83
15,U29A A42G,1.65
16,A30C G36A,1.09
17,A30C A67C,0.21
18,A31G A43U,0.89
19,U29C G122U,1.35
20,U29C G122A,1.68
21,A30U A142G,1.28
22,U29C C71A,0.32
23,A30U U134A,0.68
24,A31G U115C,1.37

row,Variant,self-cleavage
1,C28U U47G,0.7
2,A30G C118U,1.93
3,U29C A30G,0.89
4,U29C A30U,1.23
5,A30G A117U,1.17
6,A31C U132C,2.33
7,U29C A94U,0.56
8,U29A A43G,1.77
9,U29C U108G,1.2
10,A31G A94G,0.94
11,U29A A121C,0.84
12,U29C A117U,1.51
13,C28U C123U,1.03
14,A30G U132C,1.05
15,A30G A57C,0
16,A30G A57U,0.27
17,A30U U45A,1.14
18,A30U U81C,1.52
19,A30U U115C,1.16
20,A30U C113U,0.88
21,U29C U73A,1.59
22,U29C U85G,0.28
23,U29A U87G,0.12
24,U29A U87C,0.22

row,Variant,self-cleavage
1,U29C C128U,1.3
2,A30G G41U,1.66
3,A31C G54A,1.02
4,C28U C38U,1.06
5,A30G A136U,0.55
6,A30G U73C,2.09
7,A30G U115C,1.12
8,A30G A31G,1.15
9,A30U G72A,1.24
10,U29C A65U,0.42
11,A30C A50G,1.21
12,A30C U52C,0.33
13,A31G A64G,0.31
14,C28U A141G,1.53
15,A31G G127C,2.39
16,A31C U45C,1.84
17,A31G A117C,2.3
18,U29A A50U,0.89
19,U29A A50G,0.51
20,A30U U73C,1.8
21,A30U U73A,2.55
22,U29C U87C,0.41
23,U29C U87A,0.16
